From US20220042033A1, “COMPOSITION AND METHOD FOR CONFERRING AND/OR ENHANCING TOLERANCE AGAINST HERBICIDES BY USING VARIANTS OF PPO” (FarmHannong Co., Ltd., priority 2017, published 2022)

Tested on: ApPPO1
Assay: Herbicide tolerance test of ApPPO1 wild type and variants in PPO-deficient E. coli BT3(ΔPPO), growth on herbicide-containing LB agar
Assay type: cell-based, Auxenochlorella protothecoides
Conditions: relative to ApPPO1 WT, dark; for Herbicide tolerance, flumioxazin: up to 100 μM (FIGS. 7-12); for Herbicide tolerance, tiafenacil: up to 200 μM (FIGS. 7-12); for Herbicide tolerance, sulfentrazone: up to 400 μM (FIGS. 7-12)
Procedure: Then, the extent of tolerance was evaluated.

B1: V213C + Y422T: ApPPO1 (SEQ ID NO: 1) variant (protein)
chain: MPFTHLKPLNRLLGSPRARHPHVAPQAVSVTNTSTTRPGGRSSAPGIPGDAEYDVVIVGAGISGLTTAQALAKQYSDAVPRLLVTEARDCVGGNIITRRDGGYQWEEGPNSFQPSDAVLRAAVDAGVADRLVLGDPKAPRYVYWGGRLRATPSGPDVLTFDLLSLWGKLRAGLGAAGFKAPLPEREESVKEFVTRNLGEEVFQRLIEPFCSGCYAGDPAKLSMKAAFGKVYDLEKGGGSIVGGVLALMKARKQKPPEPRPADLPPKPKGQTVGSFDKGLVTLPSAIAEELGDRVVTGWKLESIDRSGDRFQLTYDTPQGRKKVSARSVALTVPAYTAASLLESRFPKLGKALSSIYYPPVASVALSYPETAILPERLGSDGHLAGFGQLHPRTQGVTTLGTIYASSLFPGRVPEGKVLLLSTFGGATNTRVATMPHGEIVSQVDKDLRKMLIRSDAESPHTVNVTVWPRAIPQFNVGHTDLIQEAKDDLASQGWQGLHLGGNYVAGVALGKCMEAGYKQAAELASHVKSLAT
modifications: Synthetic (Protoporphyrinogen IX oxidase (ApPPO1) of Auxenochlorella protothecoides)
Herbicide tolerance, flumioxazin: +++++ (more than 10,000 fold higher tolerance) | Herbicide tolerance, tiafenacil: +++++ (more than 10,000 fold higher tolerance) | Herbicide tolerance, sulfentrazone: ++++ (1,000-9,999 fold higher tolerance)

B2: A215L + Y422I: ApPPO1 (SEQ ID NO: 1) variant (protein)
chain: MPFTHLKPLNRLLGSPRARHPHVAPQAVSVTNTSTTRPGGRSSAPGIPGDAEYDVVIVGAGISGLTTAQALAKQYSDAVPRLLVTEARDCVGGNIITRRDGGYQWEEGPNSFQPSDAVLRAAVDAGVADRLVLGDPKAPRYVYWGGRLRATPSGPDVLTFDLLSLWGKLRAGLGAAGFKAPLPEREESVKEFVTRNLGEEVFQRLIEPFCSGVYLGDPAKLSMKAAFGKVYDLEKGGGSIVGGVLALMKARKQKPPEPRPADLPPKPKGQTVGSFDKGLVTLPSAIAEELGDRVVTGWKLESIDRSGDRFQLTYDTPQGRKKVSARSVALTVPAYTAASLLESRFPKLGKALSSIYYPPVASVALSYPETAILPERLGSDGHLAGFGQLHPRTQGVTTLGTIYASSLFPGRVPEGKVLLLSIFGGATNTRVATMPHGEIVSQVDKDLRKMLIRSDAESPHTVNVTVWPRAIPQFNVGHTDLIQEAKDDLASQGWQGLHLGGNYVAGVALGKCMEAGYKQAAELASHVKSLAT
modifications: Synthetic (Protoporphyrinogen IX oxidase (ApPPO1) of Auxenochlorella protothecoides)
Herbicide tolerance, flumioxazin: ++++ (1,000-9,999 fold higher tolerance) | Herbicide tolerance, tiafenacil: ++++ (1,000-9,999 fold higher tolerance) | Herbicide tolerance, sulfentrazone: ++++ (1,000-9,999 fold higher tolerance)

B3: A215C + Y422T: ApPPO1 (SEQ ID NO: 1) variant (protein)
chain: MPFTHLKPLNRLLGSPRARHPHVAPQAVSVTNTSTTRPGGRSSAPGIPGDAEYDVVIVGAGISGLTTAQALAKQYSDAVPRLLVTEARDCVGGNIITRRDGGYQWEEGPNSFQPSDAVLRAAVDAGVADRLVLGDPKAPRYVYWGGRLRATPSGPDVLTFDLLSLWGKLRAGLGAAGFKAPLPEREESVKEFVTRNLGEEVFQRLIEPFCSGVYCGDPAKLSMKAAFGKVYDLEKGGGSIVGGVLALMKARKQKPPEPRPADLPPKPKGQTVGSFDKGLVTLPSAIAEELGDRVVTGWKLESIDRSGDRFQLTYDTPQGRKKVSARSVALTVPAYTAASLLESRFPKLGKALSSIYYPPVASVALSYPETAILPERLGSDGHLAGFGQLHPRTQGVTTLGTIYASSLFPGRVPEGKVLLLSTFGGATNTRVATMPHGEIVSQVDKDLRKMLIRSDAESPHTVNVTVWPRAIPQFNVGHTDLIQEAKDDLASQGWQGLHLGGNYVAGVALGKCMEAGYKQAAELASHVKSLAT
modifications: Synthetic (Protoporphyrinogen IX oxidase (ApPPO1) of Auxenochlorella protothecoides)
Herbicide tolerance, flumioxazin: +++ (100-999 fold higher tolerance) | Herbicide tolerance, tiafenacil: +++ (100-999 fold higher tolerance) | Herbicide tolerance, sulfentrazone: +++ (100-999 fold higher tolerance)

B4: A215C + Y422I: ApPPO1 (SEQ ID NO: 1) variant (protein)
chain: MPFTHLKPLNRLLGSPRARHPHVAPQAVSVTNTSTTRPGGRSSAPGIPGDAEYDVVIVGAGISGLTTAQALAKQYSDAVPRLLVTEARDCVGGNIITRRDGGYQWEEGPNSFQPSDAVLRAAVDAGVADRLVLGDPKAPRYVYWGGRLRATPSGPDVLTFDLLSLWGKLRAGLGAAGFKAPLPEREESVKEFVTRNLGEEVFQRLIEPFCSGVYCGDPAKLSMKAAFGKVYDLEKGGGSIVGGVLALMKARKQKPPEPRPADLPPKPKGQTVGSFDKGLVTLPSAIAEELGDRVVTGWKLESIDRSGDRFQLTYDTPQGRKKVSARSVALTVPAYTAASLLESRFPKLGKALSSIYYPPVASVALSYPETAILPERLGSDGHLAGFGQLHPRTQGVTTLGTIYASSLFPGRVPEGKVLLLSIFGGATNTRVATMPHGEIVSQVDKDLRKMLIRSDAESPHTVNVTVWPRAIPQFNVGHTDLIQEAKDDLASQGWQGLHLGGNYVAGVALGKCMEAGYKQAAELASHVKSLAT
modifications: Synthetic (Protoporphyrinogen IX oxidase (ApPPO1) of Auxenochlorella protothecoides)
Herbicide tolerance, flumioxazin: +++++ (more than 10,000 fold higher tolerance) | Herbicide tolerance, tiafenacil: +++++ (more than 10,000 fold higher tolerance) | Herbicide tolerance, sulfentrazone: ++++ (1,000-9,999 fold higher tolerance)

B5: A215L + Y422T: ApPPO1 (SEQ ID NO: 1) variant (protein)
chain: MPFTHLKPLNRLLGSPRARHPHVAPQAVSVTNTSTTRPGGRSSAPGIPGDAEYDVVIVGAGISGLTTAQALAKQYSDAVPRLLVTEARDCVGGNIITRRDGGYQWEEGPNSFQPSDAVLRAAVDAGVADRLVLGDPKAPRYVYWGGRLRATPSGPDVLTFDLLSLWGKLRAGLGAAGFKAPLPEREESVKEFVTRNLGEEVFQRLIEPFCSGVYLGDPAKLSMKAAFGKVYDLEKGGGSIVGGVLALMKARKQKPPEPRPADLPPKPKGQTVGSFDKGLVTLPSAIAEELGDRVVTGWKLESIDRSGDRFQLTYDTPQGRKKVSARSVALTVPAYTAASLLESRFPKLGKALSSIYYPPVASVALSYPETAILPERLGSDGHLAGFGQLHPRTQGVTTLGTIYASSLFPGRVPEGKVLLLSTFGGATNTRVATMPHGEIVSQVDKDLRKMLIRSDAESPHTVNVTVWPRAIPQFNVGHTDLIQEAKDDLASQGWQGLHLGGNYVAGVALGKCMEAGYKQAAELASHVKSLAT
modifications: Synthetic (Protoporphyrinogen IX oxidase (ApPPO1) of Auxenochlorella protothecoides)
Herbicide tolerance, flumioxazin: + (1-9 fold higher tolerance) | Herbicide tolerance, tiafenacil: + (1-9 fold higher tolerance) | Herbicide tolerance, sulfentrazone: ++++ (1,000-9,999 fold higher tolerance)
